Test results as given in the nanobody polyreactivity screen of Harvey et al. (2022).

Test: yeast display, Sf9 membrane polyspecificity reagent, FACS + sequencing; frameworks hold sequencing errors
How it was run: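 Using colony PCR, genes from sorted yeast display clones were amplified, then sequenced on MiSeq at 2 × 250 and filtered by CDR length. The clones had been stained with 10% biotinylated, detergent-solubilized Sf9 membrane reagent for 1 hour at 4 °C and sorted by FACS into low and high (top ~1%) gates on anti-HA and streptavidin fluorescence. Polyreactivity labels come from the gate of origin.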

Which “polyreactivity (PSR sort gate)” value does the source give for “QVQLVESGGGLVQAGGSLRLSCAASGNTLDAYTLGWDRQAPGKERELVAAISRGGTRTYYADSLKGRFTISRDNAKNTVYLQMKSLKPEDTAVYSCAAKVGYTHEYGRYDYWGQGTQVTVSS” here?
Its value is “high polyreactivity”.

With “QVQLVESGGGLVQAGGSLRLSCAASGNTLIQYAMGWYRQAPGKERELVAGISGSDDSTYYADSVKGRFTISRDNAKNTVYLQMNSLKPEDTAVYYCAAQVDRWKGREHDYWGQGTQVTVSS” as the sequence, how does the “polyreactivity (PSR sort gate)” value read?
The value was “low polyreactivity”.

With “QVQLVESGGGLVQAGGSLRLSCAASGNTLRPNGMGWYRQAPGKERELVAAISSGGSPYYADSVKGRFTISRDNAKNTVYLQMNSLKPEDTAVYYCAAEYWYDYWGQGTQVTVSS” as the sequence, how does the “polyreactivity (PSR sort gate)” value read?
Its value is “low polyreactivity”.

With “QVQLVESGGGLVQAGGSLRLSCAASGNTYPVYAMGWYRHASGQERELDATITSGGSTNYADSVKGRFTLSRDNAKTSVYYQMNSLSPEDTAVYYCARRAVYSKRRYDYWGQGTQVTVSS” as the sequence, how does the “polyreactivity (PSR sort gate)” value read?
The value was “low polyreactivity”.

Which “polyreactivity (PSR sort gate)” value does the source give for “QVQLVESGGGLVQAGGSLRLSCAASGPIFFINAMGSYRQAPGKEREFLATISWSGGSTYYADSVKGRFTISRDNAKNTVYLQMNSLKPEDTAVYYCNAETYGSRWRRQYGYWGQGTQVTVSS” here?
Its value is “high polyreactivity”.

With “QVQLVESGGGLVQAGGSLRLSCAASGPIFRGYAMGWYRQAPGKERELVARITSGGRTYYADSVKGRFTISRDNAKNTVYLQMNSLKPEDTAVYYCATVGRGYDERHNYWGQGTQVTVSS” as the sequence, how does the “polyreactivity (PSR sort gate)” value read?
Its value is “high polyreactivity”.

For “QVQLVESGGGLVQAGGSLRLSCAASGPTFRYYAMGWYRQAPGKERELVATITGSGGSTYYADSVKGRFTISRDNAKNTVYLQMNSLKPEDTAVYYCNARKVRYPYRWYDYWGQGTQVTVSS”, which “polyreactivity (PSR sort gate)” value is on record?
Its value is “high polyreactivity”.

For “QVQLVESGGGLVQAGGSLRLSCAASGPTFSKANAMGWYRQAPVKERELVAAITDGGSTYADSVKGRFTISRDNAKNTVYLQINSLKPEDTAVYYCAKDTEVFYDASYDYWGQGTQVTVSS”, which “polyreactivity (PSR sort gate)” value is on record?
Its value is “low polyreactivity”.

Which “polyreactivity (PSR sort gate)” value does the source give for “QVQLVESGGGLVQAGGSLRLSCAASGPTFYEYAMGWYRQAPGKERELVARITRGGSTYYADSVKGRFTISRDNAKNTVYLQMNSLKPEDTAVYYCAAPYKDLYPYYEYDYWGHGTQVTVSS” here?
The value was “low polyreactivity”.

For “QVQLVESGGGLVQAGGSLRLSCAASGPTFYRYAMGRYRQAPGKERELVAAISASGGSTYYADSVKGRFTISRDNAKNTVYLQMNSLKPEDTAVYYCAARGWYSLYEFYYWGQGTQVTVSS”, which “polyreactivity (PSR sort gate)” value is on record?
Its value is “high polyreactivity”.

Which “polyreactivity (PSR sort gate)” value does the source give for “QVQLVESGGGLVQAGGSLRLSCAASGPTNAMGWYRQAPGKERELVAAITKSGGSTYYADSVKGRFTISRDNAKNTVYLQMNSLKPEDTAVYYCALILRHTAYYYWGQGTQVTVSS” here?
The value was “high polyreactivity”.

Which “polyreactivity (PSR sort gate)” value does the source give for “QVQLVESGGGLVQAGGSLRLSCAASGRFFGRHAMGWYRQAPGKERELVAVISKRGSSTSYADSVKGRFTISRDNAKNTVYLQMNSLKPEDTAVYYCNVFRVAYYATSTYGYDYWGQGTQVTVSS” here?
The value was “high polyreactivity”.

With “QVQLVESGGGLVQAGGSLRLSCAASGRFLWYNAMGWYRQAPGTERELVAAITRGGSTHYADSVKGRFTLSRDNAKNTVYLQMNSLKPEDTAVYYCAVSYRSFPYYWERYYSWGQGTQVTVSS” as the sequence, how does the “polyreactivity (PSR sort gate)” value read?
The value was “high polyreactivity”.

Which “polyreactivity (PSR sort gate)” value does the source give for “QVQLVESGGGLVQAGGSLRLSCAASGRICDSYTMGWYRQAPGKERELVAAISRGGGSTYYADSVKGRFTISRDNAQNTVYLQMNSLKPEDTAVYYCAASSYLNSRFKFDYWGQGTQVTVSS” here?
Its value is “low polyreactivity”.

With “QVQLVESGGGLVQAGGSLRLSCAASGRICINDMGWYRQAPGKERELVAAIRSDGSTNYADSVKGRFTISRDNAKNTVYLQMNSLKPEDTAVYYCNVDGYYLFVRGYEYWGQGTQVTVSS” as the sequence, how does the “polyreactivity (PSR sort gate)” value read?
Its value is “low polyreactivity”.

With “QVQLVESGGGLVQAGGSLRLSCAASGRIFAAYAMGWYRQAPGKERELVASISRGGSTNYADSVKGRFTISRDNAKNTVYLQMNSLKPEDTAVYYCAARQGSTYYAYYYWGQGTQVTVSS” as the sequence, how does the “polyreactivity (PSR sort gate)” value read?
The value was “high polyreactivity”.

For “QVQLVESGGGLVQAGGSLRLSCAASGRIFAGYAMGWYRQAPGKERELVATISSGGSTYYADSVKGRFTISRDNAKNTVYLQMNSLKPEDTAVYYCAAEYGTRQYSSYYKLFNYWGQGTQVTVSS”, which “polyreactivity (PSR sort gate)” value is on record?
Its value is “low polyreactivity”.

Which “polyreactivity (PSR sort gate)” value does the source give for “QVQLVESGGGLVQAGGSLRLSCAASGRIFAGYGMGWYRQAPGKARELVAAISSGGSTYYADSVKGRFTISRDNAKNTVYLQMNSLKPEDTAVYYCATDGQSVPDDYYQNVDYDYWGQGTQLTVSS” here?
The value was “low polyreactivity”.

With “QVQLVESGGGLVQAGGSLRLSCAASGRIFAGYVMGWYRQAPGKERELVAAISGSGASTYYADSVKGRFTISRDNAKNTVYLQMNSLKPEDTAVYYCAADKPGIFSRFDYWGQGTQVTVSS” as the sequence, how does the “polyreactivity (PSR sort gate)” value read?
Its value is “low polyreactivity”.

With “QVQLVESGGGLVQAGGSLRLSCAASGRIFAHNAMGWYRQAPGKERELVAAISGTGGRTYYADSVKGRFTISRDNAKNTVYLQMNSLKPEDTAVYYCARRPTHRTGVLDWEYDYWGQGTQVTVSS” as the sequence, how does the “polyreactivity (PSR sort gate)” value read?
The value was “low polyreactivity”.

For “QVQLVESGGGLVQAGGSLRLSCAASGRIFAKYAMGWSRQAPGTERELVAAISWRGGRTYYADSVKGRFTISRDNAKNTVYLQMNSLKPEDTAVYYCNAVGSRAYVASAWTQMDYWGQGTQVTVSS”, which “polyreactivity (PSR sort gate)” value is on record?
The value was “high polyreactivity”.

With “QVQLVESGGGLVQAGGSLRLSCAASGRIFALYAMGWYRQAPGKERELVAAISGGGGSTYYADSVKGRFTISRDNAKNSVYLQMNSLKPEDTAVYYCAARGLSGSSVKYGYWGQGTQVTVSS” as the sequence, how does the “polyreactivity (PSR sort gate)” value read?
The value was “high polyreactivity”.

For “QVQLVESGGGLVQAGGSLRLSCAASGRIFALYAMGWYRQAPGKERELVAAITWRGGRTRYADSVKGRFTISRDNAKNTVYLQMNSLKPEDTAVYYCAKEYVKYQWDYGYWGQGTQVTVSS”, which “polyreactivity (PSR sort gate)” value is on record?
Its value is “high polyreactivity”.

With “QVQLVESGGGLVQAGGSLRLSCAASGRIFAPYAMGWYRQAPGKERELVAAITSGGSTNYADSVKGRFTISRDNAKNTVYLQMNSLKPEDTAVYYCAAEASYNYGKYVVTYDYWGQGTQVTVSS” as the sequence, how does the “polyreactivity (PSR sort gate)” value read?
Its value is “high polyreactivity”.

Which “polyreactivity (PSR sort gate)” value does the source give for “QVQLVESGGGLVQAGGSLRLSCAASGRIFAPYAMGWYRQAPGQEREFVATITVSGARTRYADSVKGRFTISRDNAKNTVYLQMNSLKPEETAVYYCAASKFYSWRATRKVSYDYWGQGTQVTVSS” here?
Its value is “high polyreactivity”.

For “QVQLVESGGGLVQAGGSLRLSCAASGRIFAPYDMGWYRQAPGKERELVAAISRSGGSTYYADSVKGRFTISRDNAKNSVYFQLNSLKPEDTAVYYCAASYPGRYWLYRYEYWGQGTQVTVSS”, which “polyreactivity (PSR sort gate)” value is on record?
Its value is “high polyreactivity”.

Which “polyreactivity (PSR sort gate)” value does the source give for “QVQLVESGGGLVQAGGSLRLSCAASGRIFAQYAMGWYRQAPGKERELVADISSGVRTYADSVKGRFTISRDNAKNTVYLQMNSLKPEDTAVYYCNAYYIIFTRNDYWGQGTQVTVSS” here?
Its value is “low polyreactivity”.

With “QVQLVESGGGLVQAGGSLRLSCAASGRIFARKAMGWYRQAPGKEGELVARIRASGGSTYYADSVKGRFTISRDNAKNTVYLQMNSLKPEDTAVYYCNARTSSPYRVDYWGQGTQVTVSS” as the sequence, how does the “polyreactivity (PSR sort gate)” value read?
Its value is “high polyreactivity”.

For “QVQLVESGGGLVQAGGSLRLSCAASGRIFARNALGWYRQAPGKEGELVARIRASGGSTYYADSVKGRFTISRDNAKNTVYLQMNSLKPEDTAVYYCNARTSSPYRVDYWGQGTQVTVSS”, which “polyreactivity (PSR sort gate)” value is on record?
The value was “high polyreactivity”.

With “QVQLVESGGGLVQAGGSLRLSCAASGRIFARYAMGWYRQAPGKERELVAAITVSGDNTYYADSVKGRFTISRDNAKNTVYLQMNSLKPEDTAVYYCAVRAVLLFGFFEYDYWGQGTQVTVSS” as the sequence, how does the “polyreactivity (PSR sort gate)” value read?
The value was “low polyreactivity”.

For “QVQLVESGGGLVQAGGSLRLSCAASGRIFARYTMGWYRQAPGKERELVATITGRGGRTYADSVKGRFTISRDNAKNTVYLQMNSLKPEVTAVYYCNAGGRTASRRYYWGQGSQVTVSS”, which “polyreactivity (PSR sort gate)” value is on record?
The value was “low polyreactivity”.

For “QVQLVESGGGLVQAGGSLRLSCAASGRIFASNAMGWYRQAPGKERELVAAISRTGGTTYYADSVKGRFTISRDNAKNTVYLQMNSLKPEDTAVYYCNAVKAPYLRYDYWGQGTQVTVSS”, which “polyreactivity (PSR sort gate)” value is on record?
The value was “high polyreactivity”.

For “QVQLVESGGGLVQAGGSLRLSCAASGRIFASNAMGWYRQAPGKERELVAAITTTGGSTYYADSVKGRFTISRDNAKNTVYLQMNSLKPEDTAVYYCAARAIPRVRRYGSMNYWGQGTQVTVSS”, which “polyreactivity (PSR sort gate)” value is on record?
The value was “high polyreactivity”.

With “QVQLVESGGGLVQAGGSLRLSCAASGRIFASYAMGWYRQAPGKERELVAAINSNGGSKYYADSVKGRFTISRDNAKNTVYLQMNSLKPEDTAVYYCAAGARYKMGYWGQGTQVTVSS” as the sequence, how does the “polyreactivity (PSR sort gate)” value read?
Its value is “high polyreactivity”.

For “QVQLVESGGGLVQAGGSLRLSCAASGRIFATNAMGWYRQAPGKERELVATITRSAGRTYYADSVKGRFTISRDNAKNTVYLQMNSLKPEDTAVYYCAASYWDTDPGYREYDYWGQGTQVTVSS”, which “polyreactivity (PSR sort gate)” value is on record?
The value was “low polyreactivity”.

Which “polyreactivity (PSR sort gate)” value does the source give for “QVQLVESGGGLVQAGGSLRLSCAASGRIFATNAMGWYRQAPGKERELVATITRSAGRTYYADSVKGRFTISRDTAKNTVYLQMNSLKPEDTAVYYCAASYWDTEPGYREYDYWGQGTQVTVSS” here?
The value was “low polyreactivity”.

With “QVQLVESGGGLVQAGGSLRLSCAASGRIFATYAMGWYRQAPGKERELVAAISDSGGRTYYADSVKGRFTISRDNAKNTVYLQMNSLKPEDTAVYYCARRAVYGIFDYWGQGTQVTVSS” as the sequence, how does the “polyreactivity (PSR sort gate)” value read?
Its value is “high polyreactivity”.

For “QVQLVESGGGLVQAGGSLRLSCAASGRIFAVYAMGWYRQAPGKERELVATISSSGSTHYADSVKGRFTISRDNAKNTVYLQMNSLKPEDTAVYYCNAGGSELKLGYDYWGQGTQVTVSS”, which “polyreactivity (PSR sort gate)” value is on record?
The value was “low polyreactivity”.

For “QVQLVESGGGLVQAGGSLRLSCAASGRIFAWNDMGWYRQAPGKERELVAAITSGGSTYYADSVKGRFTISRDNAKNTVYLQMNSLKPEDTAVYYCAAEVYVPDYFQHKFDVEYEYWGQGTQVTVSS”, which “polyreactivity (PSR sort gate)” value is on record?
Its value is “low polyreactivity”.

For “QVQLVESGGGLVQAGGSLRLSCAASGRIFAWNDMGWYRQAPGKERELVAAITSGGSTYYADSVKGRFTISRDNAKNTVYLQMNSLKPEDTAVYYCAAGSAYYSQRYFAYGYDSWGQGTQVTVSS”, which “polyreactivity (PSR sort gate)” value is on record?
Its value is “low polyreactivity”.

With “QVQLVESGGGLVQAGGSLRLSCAASGRIFAWNDMGWYRQAPGKESELVAAITSGGSTYYADSVKGRFTISRDNAKNTVYLQMNCLKPEDTAVYYCAAGSAYYSQRYFAYGYDSWGQGTQVTVSS” as the sequence, how does the “polyreactivity (PSR sort gate)” value read?
The value was “low polyreactivity”.
